Measurements as given in patent US20100028347A1 (Eli Lilly, published 2010).

Assays:
mouse VEGFR-2 Fc = target: T1, mouse VEGFR-2 Fc (mouse, UniProt P35918 20-762, limits assumed); test: ELISA: antibody dilutions on plate coated with 1 µg/ml mouse VEGFR-2 Fc, HRP secondary, O.D. 450
T1 construct: not shown: Fc part; not described
Protocol: To determine the specificity of an anti-VEGFR-1 monoclonal antibody to human VEGFR-I, purified antibodies 18F1 were tested in an ELISA-based assay. One μg/ml of recombinant human VEGFR-I Fc, mouse VEGFR-I Fc, mouse VEGFR-2 Fc, or human VEGFR-2 alkaline phosphatase was coated with PBS in a 96-well microtiter plates at 4° C. over night. After wash, the receptor coated plates were blocked with PBS containing 5% Dry Milk and 0.05% Tween 20. Serial dilutions of primary antibody 18F1 to human VEGFR-I, MF1 to mouse VEGFR-I, IC1 1 to human VEGFR-2, or DClOl to mouse VEGFR-2 were incubated in the receptor-coated plates for 30 minutes. After wash secondary anti-primary HRP conjugate antibodies was incubated in the plates for 30 minutes. Plates were washed and incubated with the substrate TMB (3,3′,5,5′-tetra-methylbenzidine) for color development. The absorbance at 450 nm was read as OD values for quantification of binding activity of antibodies. Data were analyzed using a GraphPad Prism Software.

[1] = target: T2, soluble recombinant human VEGFR-1 alkaline phosphatase (human, UniProt P17948 27-758); test: ELISA, purified antibody on rhuVEGFR-1 AP coated plate (given as ED50)
T2 construct: Made in house in stably transfected cells; also called rhuVEGFR-I AP; VEGFR-I AP; not shown: alkaline phosphatase fusion partner
Protocol: (§1) Specifically, hybridoma supernatants or purified antibodies were diluted in PBS with 5% FBS and 0.05% Tween 20 (ELISA buffer) and incubated in rhuVEGFR-I AP or AP coated 96-well microtiter plates for 30 minutes. Plates were washed with the ELISA buffer and incubated with goat anti-mouse IgG-horseradish peroxidase (HRP) conjugate (BioSource International, Camarillo, Calif.) for 30 minutes. TMB (3,3′,5,5′-tetra-methylbenzidine) substrate (Kierkegaard and Perry Lab, Inc., Gaithersburg, Md.) was used for color development following the manufacturer's instruction. The absorbance at 450 nanometers (nm) was read for quantification of binding activity of antibodies. For identification of the hybridomas producing anti-VEGFR-I antibodies, hybridoma supernatants were preincubated with VEGFR-I AP for 1 hour. The mixtures were incubated with the ELISA buffer in VEGF or P1GF coated 96-well microtiter plates for 1 hour. PNPP (p-nitrophenyl phosphate) substrate for AP was used for color development following the manufacturer's instruction. The absorbance at 405 nm was read for quantification of VEGFR-I binding to VEGF or P1GF. Optical density (OD) values were read on a microtiter plate reader (Molecular Devices Corp., Sunnyvale, Calif.). ED50 and IC50 of the antibodies were analyzed using GraphPad Prism 3 software (GraphPad Software, Inc., San Diego, Calif.).

[2] = target: T3, recombinant human VEGFR-1 Fc (human, UniProt P17948-2 27-687, limits assumed); test: ELISA: plate coated with HuVEGFR-1-Fc 100 ng/well, goat anti-human kappa-HRP, O.D. 450
T3 construct: Bought from R&D Systems; also called rhuVEGFR-1 Fc; HuVEGFR-I-Fc; not shown: Fc part
Protocol: TMB (3,3′,5,5′-tetra-methylbenzidine) substrate (Kierkegaard and Perry Lab, Inc., Gaithersburg, Md.) was used for color development following the manufacturer's instruction. The absorbance at 450 nanometers (nm) was read for quantification of binding activity of antibodies. For identification of the hybridomas producing anti-VEGFR-I antibodies, hybridoma supernatants were preincubated with VEGFR-I AP for 1 hour. […] PNPP (p-nitrophenyl phosphate) substrate for AP was used for color development following the manufacturer's instruction. The absorbance at 405 nm was read for quantification of VEGFR-I binding to VEGF or P1GF. Optical density (OD) values were read on a microtiter plate reader (Molecular Devices Corp., Sunnyvale, Calif.). ED50 and IC50 of the antibodies were analyzed using GraphPad Prism 3 software (GraphPad Software, Inc., San Diego, Calif.).
HuVEGFR-I-Fc, mouse VEGFR-I-AP (hnClone Systems) or huVEGFR-2-AP (ImClone Systems) (100 ng/well) was coated on 96 strip-well plates and blocked with 5% milk/PBS. […]

[3] = target: T2, soluble recombinant human VEGFR-1 …; test: blocking ELISA: antibody preincubated with VEGFR-1 AP, binding to VEGF coated plate
Protocol: as §1

T2 sequence (P17948 27-758): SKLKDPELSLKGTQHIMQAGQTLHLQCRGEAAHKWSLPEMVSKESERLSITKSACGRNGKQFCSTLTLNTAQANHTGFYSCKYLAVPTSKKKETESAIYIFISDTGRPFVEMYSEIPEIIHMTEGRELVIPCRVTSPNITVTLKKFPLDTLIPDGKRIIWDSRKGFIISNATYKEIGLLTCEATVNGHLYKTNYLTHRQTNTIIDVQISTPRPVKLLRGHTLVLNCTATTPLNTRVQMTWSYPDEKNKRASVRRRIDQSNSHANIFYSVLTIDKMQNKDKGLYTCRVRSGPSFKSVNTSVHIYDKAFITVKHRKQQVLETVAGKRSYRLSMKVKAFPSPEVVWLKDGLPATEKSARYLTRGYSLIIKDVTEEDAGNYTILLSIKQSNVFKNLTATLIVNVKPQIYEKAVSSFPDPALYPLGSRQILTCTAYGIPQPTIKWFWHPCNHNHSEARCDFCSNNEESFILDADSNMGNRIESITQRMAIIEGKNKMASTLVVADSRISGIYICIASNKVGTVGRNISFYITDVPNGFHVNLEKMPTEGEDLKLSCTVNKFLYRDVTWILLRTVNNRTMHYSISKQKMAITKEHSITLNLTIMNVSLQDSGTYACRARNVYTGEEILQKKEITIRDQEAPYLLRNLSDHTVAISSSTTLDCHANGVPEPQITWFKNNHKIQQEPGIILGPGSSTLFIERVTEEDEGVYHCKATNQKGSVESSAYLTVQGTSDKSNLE
T3 sequence (P17948 other isoform, or with tags, fused parts or gaps limits assumed): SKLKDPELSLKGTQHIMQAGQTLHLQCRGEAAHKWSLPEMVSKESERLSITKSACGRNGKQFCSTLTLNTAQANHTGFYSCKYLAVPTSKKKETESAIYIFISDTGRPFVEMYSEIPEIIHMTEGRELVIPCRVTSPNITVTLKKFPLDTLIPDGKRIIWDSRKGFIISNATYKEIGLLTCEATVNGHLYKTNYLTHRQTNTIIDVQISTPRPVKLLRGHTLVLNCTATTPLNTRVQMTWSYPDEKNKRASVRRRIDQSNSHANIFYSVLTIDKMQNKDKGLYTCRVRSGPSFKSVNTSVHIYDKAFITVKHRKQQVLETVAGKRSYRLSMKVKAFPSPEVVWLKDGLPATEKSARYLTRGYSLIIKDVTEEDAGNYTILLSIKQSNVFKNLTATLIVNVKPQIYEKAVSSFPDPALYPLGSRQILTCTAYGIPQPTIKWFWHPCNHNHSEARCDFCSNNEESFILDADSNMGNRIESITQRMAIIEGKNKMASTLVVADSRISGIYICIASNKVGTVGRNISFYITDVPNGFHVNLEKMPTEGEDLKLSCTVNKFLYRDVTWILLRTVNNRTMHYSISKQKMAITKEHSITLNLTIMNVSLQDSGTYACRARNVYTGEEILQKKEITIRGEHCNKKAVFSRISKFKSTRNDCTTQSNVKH
T1 sequence (P35918 20-762 limits assumed): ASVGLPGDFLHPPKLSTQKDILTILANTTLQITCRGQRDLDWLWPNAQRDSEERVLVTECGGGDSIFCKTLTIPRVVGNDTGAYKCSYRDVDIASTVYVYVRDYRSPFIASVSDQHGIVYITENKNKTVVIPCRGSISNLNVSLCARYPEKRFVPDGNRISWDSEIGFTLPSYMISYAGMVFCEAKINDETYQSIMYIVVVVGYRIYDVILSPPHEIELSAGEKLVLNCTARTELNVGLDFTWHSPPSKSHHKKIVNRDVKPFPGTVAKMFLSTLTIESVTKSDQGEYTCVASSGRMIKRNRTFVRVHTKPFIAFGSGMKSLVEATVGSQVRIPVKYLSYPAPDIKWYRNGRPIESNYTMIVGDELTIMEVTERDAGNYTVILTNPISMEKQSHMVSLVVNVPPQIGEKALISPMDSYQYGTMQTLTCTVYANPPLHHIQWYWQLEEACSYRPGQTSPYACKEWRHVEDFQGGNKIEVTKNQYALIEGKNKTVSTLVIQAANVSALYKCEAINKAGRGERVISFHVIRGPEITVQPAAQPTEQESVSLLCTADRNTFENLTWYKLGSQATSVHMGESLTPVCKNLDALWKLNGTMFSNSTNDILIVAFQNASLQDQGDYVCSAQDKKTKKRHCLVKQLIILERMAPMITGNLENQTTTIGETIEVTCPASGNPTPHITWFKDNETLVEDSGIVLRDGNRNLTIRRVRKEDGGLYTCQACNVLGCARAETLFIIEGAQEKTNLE

B1: anti-human VEGFR-1 antibody 18F1 (antibody, V domains shown)
VH: QAQVVESGGGVVQSGRSLRLSCAASGFAFSSYGMHWVRQAPGKGLEWVAVIWYDGSNKYYADSVRGRFTISRDNSENTLYLQMNSLRAEDTAVYYCARDHYGSGVHHYFYYGLDVWGQGTTVTVSS
VL: not shown
notes: Fully human antibody (gamma heavy chain, kappa light chain) from hybridomas of KM transgenic mice, purified; The light chain entry runs a few residues into the kappa constant region; also called MC-18F1; IMC-18F1
**Q.** Does B1 bind (mouse VEGFR-2 Fc)?
**A.** no binding (tested: 1 µg/ml)

**Q.** And the EC50 [1]?
**A.** 100 pM

**Q.** And the “EC50 (read off the curve)” value [2]?
**A.** ~3 ng/mL

**Q.** What about the IC50 [3] of the same binder?
**A.** 840 pM
